Laboratory results as given in the supplement of paper PMC9112550, “Optimization of the antimicrobial peptide Bac7 by deep mutational scanning” (BMC Biology, 2022).

Each sequence was assayed on Escherichia coli TOP10 (assay: shrunken log2 fold change of peptide-encoding DNA abundance (4.5 h post-induction vs induction); higher = less antimicrobial activity (less host growth inhibition)). Conditions: time post-induction: 4.5 h; library: site-saturation at positions 5, 18, 19, 20.
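Also: peptides expressed intracellularly from a pBAD plasmid library in pooled LB shake-flask culture, induced with 0.3% L-arabinose, DNA abundance read by NGS, three biological replicates, DESeq2 with apeglm shrinkage.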

Sequence	shrunken log2 fold change
RRIRNRPPRLPRPRPRPYYKPRP	-1.46
RRIRGRPPRLPRPRPRPQSNPRP	0.518
RRIRTRPPRLPRPRPRPNDIPRP	-0.873
RRIRYRPPRLPRPRPRPALRPRP	-0.0531
RRIRKRPPRLPRPRPRPCWTPRP	-0.0905
RRIRHRPPRLPRPRPRPWKLPRP	-0.185
RRIRKRPPRLPRPRPRPRERPRP	0.358
RRIRRRPPRLPRPRPRPKLAPRP	0.333
RRIRMRPPRLPRPRPRPHLDPRP	0.108
RRIRARPPRLPRPRPRPICAPRP	0.799
RRIRYRPPRLPRPRPRPHVEPRP	0.0184
RRIRYRPPRLPRPRPRPQNNPRP	-0.86
RRIRMRPPRLPRPRPRPSCKPRP	0.0347
RRIRFRPPRLPRPRPRPEDNPRP	-0.00777
RRIRWRPPRLPRPRPRPSTNPRP	-0.127
RRIRGRPPRLPRPRPRPNLLPRP	0.485
RRIRQRPPRLPRPRPRPTTRPRP	0.215
RRIRNRPPRLPRPRPRPCRPPRP	-0.197
RRIRARPPRLPRPRPRPGWPPRP	0.789
RRIRLRPPRLPRPRPRPLTGPRP	-0.0782
RRIRFRPPRLPRPRPRPNQMPRP	-0.167
RRIRCRPPRLPRPRPRPYRMPRP	-0.197

Sequence	shrunken log2 fold change
RRIRRRPPRLPRPRPRPVDGPRP	0.576
RRIRSRPPRLPRPRPRPGHFPRP	-0.0564
RRIRTRPPRLPRPRPRPFFIPRP	-0.518
RRIRTRPPRLPRPRPRPPYYPRP	-0.535
RRIRRRPPRLPRPRPRPQKIPRP	0.0999
RRIRTRPPRLPRPRPRPVACPRP	-0.0699
RRIRTRPPRLPRPRPRPSRCPRP	0.061
RRIRFRPPRLPRPRPRPEKAPRP	0.0584
RRIRCRPPRLPRPRPRPSYMPRP	-0.646
RRIRTRPPRLPRPRPRPATHPRP	-0.152
RRIRLRPPRLPRPRPRPWSLPRP	-0.195
RRIRVRPPRLPRPRPRPQNSPRP	-0.802
RRIRSRPPRLPRPRPRPYFPPRP	-0.694
RRIRARPPRLPRPRPRPQPNPRP	0.396
RRIRWRPPRLPRPRPRPKVNPRP	0.175
RRIRSRPPRLPRPRPRPYIQPRP	-1.18
RRIRDRPPRLPRPRPRPMYDPRP	-0.208
RRIRCRPPRLPRPRPRPKAHPRP	0.205
RRIRQRPPRLPRPRPRPMQHPRP	-0.165
RRIRCRPPRLPRPRPRPVVHPRP	-0.55
RRIRGRPPRLPRPRPRPALKPRP	0.504
RRIRLRPPRLPRPRPRPYIMPRP	-1.45

Sequence	shrunken log2 fold change
RRIRERPPRLPRPRPRPEFEPRP	-0.159
RRIRMRPPRLPRPRPRPDRGPRP	0.367
RRIRERPPRLPRPRPRPRTKPRP	0.175
RRIRGRPPRLPRPRPRPKHGPRP	0.699
RRIRMRPPRLPRPRPRPDRWPRP	0.926
RRIRCRPPRLPRPRPRPTMQPRP	-0.0203
RRIRQRPPRLPRPRPRPCVTPRP	-0.141
RRIRVRPPRLPRPRPRPFWYPRP	-0.308
RRIRYRPPRLPRPRPRPTCSPRP	-0.0789
RRIRYRPPRLPRPRPRPHKIPRP	-0.226
RRIRRRPPRLPRPRPRPHITPRP	-0.385
RRIRYRPPRLPRPRPRPMPEPRP	0.0501
RRIRVRPPRLPRPRPRPGQQPRP	0.026
RRIRFRPPRLPRPRPRPCHGPRP	-1.45
RRIRVRPPRLPRPRPRPKNMPRP	-0.866
RRIRQRPPRLPRPRPRPWPGPRP	0.116
RRIRCRPPRLPRPRPRPVFHPRP	-0.262
RRIRQRPPRLPRPRPRPSIGPRP	-0.268
RRIRLRPPRLPRPRPRPTNQPRP	-0.327
RRIRGRPPRLPRPRPRPTFHPRP	0.366
RRIRERPPRLPRPRPRPQQTPRP	-0.0895
RRIRDRPPRLPRPRPRPDKWPRP	-0.0651

Sequence	shrunken log2 fold change
RRIRQRPPRLPRPRPRPAEMPRP	-0.0227
RRIRMRPPRLPRPRPRPYRPPRP	-0.117
RRIRMRPPRLPRPRPRPPDKPRP	1.03
RRIRPRPPRLPRPRPRPDQHPRP	-0.0313
RRIRRRPPRLPRPRPRPDQFPRP	-0.0176
RRIRYRPPRLPRPRPRPPWQPRP	-0.121
RRIRNRPPRLPRPRPRPPNKPRP	0.125
RRIRGRPPRLPRPRPRPAQDPRP	0.836
RRIRSRPPRLPRPRPRPATKPRP	0.161
RRIRARPPRLPRPRPRPHHRPRP	0.00443
RRIRYRPPRLPRPRPRPELLPRP	-0.157
RRIRSRPPRLPRPRPRPTSGPRP	0.194
RRIRDRPPRLPRPRPRPQWLPRP	0.24
RRIRMRPPRLPRPRPRPFHNPRP	-0.00804
RRIRIRPPRLPRPRPRPHSHPRP	-0.912
RRIRMRPPRLPRPRPRPGTIPRP	0.228
RRIRLRPPRLPRPRPRPKPLPRP	0.144
RRIRHRPPRLPRPRPRPMNPPRP	-0.379
RRIRARPPRLPRPRPRPDSQPRP	0.0999
RRIRQRPPRLPRPRPRPRNNPRP	-0.173
RRIRYRPPRLPRPRPRPYSGPRP	-1
RRIRVRPPRLPRPRPRPPKSPRP	0.1

Sequence	shrunken log2 fold change
RRIRDRPPRLPRPRPRPTTGPRP	0.673
RRIRERPPRLPRPRPRPWPEPRP	-0.0215
RRIRARPPRLPRPRPRPMNHPRP	-0.151
RRIRFRPPRLPRPRPRPEHGPRP	0.00151
RRIRHRPPRLPRPRPRPPACPRP	0.153
RRIRERPPRLPRPRPRPWCGPRP	-0.245
RRIRGRPPRLPRPRPRPFGQPRP	0.368
RRIRVRPPRLPRPRPRPDHGPRP	-0.0218
RRIRCRPPRLPRPRPRPNWIPRP	-0.419
RRIRARPPRLPRPRPRPCVRPRP	0.135
RRIRIRPPRLPRPRPRPVVYPRP	-0.312
RRIRFRPPRLPRPRPRPQMSPRP	-0.204
RRIRYRPPRLPRPRPRPDRRPRP	-0.177
RRIRVRPPRLPRPRPRPVPRPRP	-0.00795
RRIRVRPPRLPRPRPRPGQMPRP	-0.0386
RRIRTRPPRLPRPRPRPANEPRP	-0.226
RRIRGRPPRLPRPRPRPFKLPRP	-0.167
RRIRMRPPRLPRPRPRPNKNPRP	0.152
RRIRKRPPRLPRPRPRPARVPRP	0.857
RRIRDRPPRLPRPRPRPLLAPRP	1.2
RRIRARPPRLPRPRPRPELVPRP	1.3
